Test [1] has as its target rHuman EGF R/Fc Chimera, CF (R&D Systems Cat#344-ER) (human) (UniProt P00533). Nature of the test: Multispot ECL (MSD) titration; antigen spotted on plate; Fab 392.5 nM; blank spot 338.
Test [2] has the same target. As to the kind of experiment: Multispot ECL (MSD) titration; antigen spotted on plate; Fab 98.1 nM; blank spot 210.
Test [3] has the same target. Nature of the test: Multispot ECL (MSD) titration; antigen spotted on plate; Fab […]; blank spot 149.
Test [4] has the same target. Nature of the test: Multispot ECL (MSD) titration; antigen spotted on plate; Fab 1570 nM; blank spot 866.

B1: Fab VH1-46_IGHD3-10*01_IGHJ4*01 & O1_IGKJ1*01 (Fab, V domains shown)
VH: QVQLVQSGAEVKKPGASVKVSCKASGYTFTSYYMHWVRQAPGQGLEWMGIINPSGGSTSYAQKFQGRVTMTRDTSTSTVYMELSSLRSEDTAVYYCAREYYYGSGSYYNDYFDYWGQGTLVTVSS
VL: DIVMTQTPLSLPVTPGEPASISCRSSQSLLDSDDGNTYLDWYLQKPGQSPQLLIYTLSYRASGVPDRFSGSGSGTDFTLKISRVEAEDVGVYYCMQRIEFPSWTFGQGTKVEIKR
Take B1: the ECL signal in test [1] was 744; in test [2] it was 4390; in test [3], 317; in test [4] it was 2480.

(Values after patent US20120316071A1.)
